Substitutions are numbered along the chain they refer to.
B1: antibody 090 (antibody, human IgG1, kappa, V domains shown)
VH: EVQLVQSGAEVKKPGASMKVSCKASGYTFTDYYIHWVRQAPGQGPEWMGWINPNSGGTNYAQKFQGRVTMTRDTSISTAYMELSRLRSDDTAVYYCARDLWNDDVDYYGMDVWGKGTMVTVSS
VL: EIVLTQSPGTLSLSPGERATLSCRASQSVSSYLAWYQQKPGQAPRLLIYGASSRATGIPARFSGSGSGTEFTLTISSLQSEDFATYYCQQSYSTPLTFGPGTKVEIKR
B2: antibody 091 (antibody, human IgG1, kappa, V domains shown)
VH: B1 VH
VL: B1 VL with G9A, G50D, S53N, E70D, Q79E, S80P, P100G, E105D
B3: antibody 021-M34 (antibody, human IgG1, kappa, V domains shown)
VH: not shown
VL: DIQLTQSPSSLSASVGDRVTITCRASASISTYLNWYQQKPGKAPKLLIYAASSLQSGVPSRFSGSGSGTDFTLTISSLQPEDFATYYCQQSYSTPLTFGGGTKVDIKR
notes: 021 with X34 (LCDR1) Q to A
B4: antibody 093 (antibody, human IgG1, kappa, V domains shown)
VH: B1 VH
VL: B3 VL with A27Q, T31S, A50D, D70E, S76R, V104L, D105E
B5: antibody 021-M36 (antibody, human IgG1, kappa, V domains shown)
VH: not shown
VL: B3 VL with A27Q, I29A
notes: 021 with X36 (LCDR1) I to A
B6: antibody 021-M42 (antibody, human IgG1, kappa, V domains shown)
VH: not shown
VL: B3 VL with A27Q, S52A
notes: 021 with X42 (LCDR2) S to A
B7: antibody 021-M35 (antibody, human IgG1, kappa, V domains shown)
VH: not shown
VL: B3 VL with A27Q, S28A
notes: 021 with X35 (LCDR1) S to A
B8: antibody 021-M40 (antibody, human IgG1, kappa, V domains shown)
VH: not shown
VL: B3 VL with A27Q, A50S
notes: 021 with X40 (LCDR2) A to S
B9: antibody 095 (antibody, human IgG1, kappa, V domains shown)
VH: not shown
VL: B3 VL with A27Q, T31S, Y49S, E81G, F83L, D105E
B10: antibody 021-M41 (antibody, human IgG1, kappa, V domains shown)
VH: not shown
VL: B3 VL with A27Q, A51S
notes: 021 with X41 (LCDR2) A to S
B11: antibody 021-M39 (antibody, human IgG1, kappa, V domains shown)
VH: not shown
VL: B3 VL with A27Q, Y32A
notes: 021 with X39 (LCDR1) Y to A
B12: antibody 083 (antibody, human IgG1, kappa, V domains shown)
VH: EVQLVQSGAEVKKPGASVKVSCKASGYTFTYYYMHWVRQAPGQGLEWMGWINPNSGGTNYAQKFQGRVTITADKSTSTAYMELSSLRSEDTAVYYCARDVWQQGGYYYYMDVWGKGTLVTVSS
VL: not shown
B13: antibody 096 (antibody, human IgG1, kappa, V domains shown)
VH: not shown
VL: ETTLTQSPSTLSASVGDRVTITCRASQSISSYLNWYQQKPGKAPQLLIYTASSLQSGVPSRFSGSGSGTDFTLTISSLQPEDFATYYCQQSYSTPLTFGQGTRLEIKR

Target: T1, HBsAg protein (hepatitis B virus surface antigen) (hepatitis B virus, UniProt P03140 175-400)
T1 construct: Coated on the ELISA plate at 20 ug/ml; also called HBsAg antigen
Assay: ELISA on coated HBsAg; grade from OD450 ratio to 021 at 4 ug/ml
Method: The plate was washed 3 times with a washing solution PBST (PBS with 0.5%0 Tween), adding 100 μl/well secondary antibody (1:10000 dilution, Jackson ImmunoResearch) to the ELISA plate, and incubated at 37° C. for 1 hour. Finally, the plate was washed 5 times with a washing solution PBST (PBS with 0.5%0 Tween), adding 100 μl/well TMB chromogenic solution, placing it in the dark to react for 20-40 minute at room temperature, adding equal volume of stop solution to stop the chromogenic reaction, and uing Microplate Reader to measure the absorbance (OD value) at wavelength of 450 nm.

T1 sequence (P03140 175-400, tags left off): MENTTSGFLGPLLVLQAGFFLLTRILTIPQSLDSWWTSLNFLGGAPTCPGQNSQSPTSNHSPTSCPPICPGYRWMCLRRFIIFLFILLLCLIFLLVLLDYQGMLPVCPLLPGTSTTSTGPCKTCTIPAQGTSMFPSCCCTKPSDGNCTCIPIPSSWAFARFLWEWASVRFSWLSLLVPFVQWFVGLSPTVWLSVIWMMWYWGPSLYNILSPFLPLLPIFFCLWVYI

| Binder | ratio of OD450 at 4 ug/ml to OD450 of antibody 021 at 4 ug/ml [ratio] |
| --- | --- |
| B1 | 0.8 to 1.1 |
| B2 | 0.8 to 1.1 |
| B3 | 0.8 to 1.1 |
| B4 | > 1.1 |
| B5 | 0.4 to 0.6 |
| B6 | 0.6 to 0.8 |
| B7 | 0.8 to 1.1 |
| B8 | > 1.1 |
| B9 | > 1.1 |
| B10 | 0.8 to 1.1 |
| B11 | 0.4 to 0.6 |
| B12 | > 1.1 |
| B13 | > 1.1 |

Reference: patent US20230265168A1 (BEIJING KAWIN TECHNOLOGY SHARE, published 2023)
